# Measured values as given in PMC9836055.
# System: CC(=O)Oc1ccc([N+](=O)[O-])cc1
# Assay: purified protein
# Conditions: PBS, 37 °C, 0.25 mg/mL enzyme
substance,measurement,value
Lsa45 (Leptospiral surface adhesin of 45 kDa) (Leptospira interrogans serovar Copenhageni str. Fiocruz L1-130),Km,849.3 ± 15.30 µM
same,Vmax,219 µM/min
